According to article PMC10284700:

Target: wild-type full-length human FGFR1c, P11362
Experiment: proximity ligation assay (PLA) on L6 cells
Details: chain shown with the change; L6-FGFR1cWT cells cotreated with FGF23ΔHBS and soluble αKlotho; n = 6 microscope fields, mean ± SD; parent: est. 2.3; read off a plot

Sequence of wild-type full-length human FGFR1c, P11362 (P11362 22-822): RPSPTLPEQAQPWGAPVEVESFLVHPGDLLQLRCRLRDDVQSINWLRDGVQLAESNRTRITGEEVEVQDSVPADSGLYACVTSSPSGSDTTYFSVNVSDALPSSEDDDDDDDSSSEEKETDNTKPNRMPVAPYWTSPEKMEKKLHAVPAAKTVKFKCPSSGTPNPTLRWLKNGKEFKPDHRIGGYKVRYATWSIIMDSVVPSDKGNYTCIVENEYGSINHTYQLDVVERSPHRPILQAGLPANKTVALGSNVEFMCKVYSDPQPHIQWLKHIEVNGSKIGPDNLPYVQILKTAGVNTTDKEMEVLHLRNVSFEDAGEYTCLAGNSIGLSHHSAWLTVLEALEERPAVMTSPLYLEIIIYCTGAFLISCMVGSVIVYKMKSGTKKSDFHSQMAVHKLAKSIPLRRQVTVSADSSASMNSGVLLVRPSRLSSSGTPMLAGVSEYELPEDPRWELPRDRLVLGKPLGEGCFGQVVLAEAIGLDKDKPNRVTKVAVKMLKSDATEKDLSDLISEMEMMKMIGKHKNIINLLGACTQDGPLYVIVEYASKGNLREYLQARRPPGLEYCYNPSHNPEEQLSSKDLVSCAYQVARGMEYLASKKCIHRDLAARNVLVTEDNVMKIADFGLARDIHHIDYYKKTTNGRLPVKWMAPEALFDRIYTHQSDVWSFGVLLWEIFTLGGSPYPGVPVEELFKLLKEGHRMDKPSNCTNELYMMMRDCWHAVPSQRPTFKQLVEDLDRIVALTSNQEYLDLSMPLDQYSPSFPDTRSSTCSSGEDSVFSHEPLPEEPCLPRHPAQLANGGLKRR

response (positive point/cell number): 1.2
B1: full-length mature human FGF23 (residues Tyr25 to Ile251), Q9GZV9 R48A; R140A (protein)
chain: MLGARLRLWVCALCSVCSMSVLRAYPNASPLLGSSWGGLIHLYTATAANSYHLQIHKNGHVDGAPHQTIYSALMIRSEDAGFVVITGVMSRRYLCMDFRGNIFGSHYFDPENCRFQHQTLENGYDVYHSPQYHFLVSLGAAKRAFLPGMNPPPYSQFLSRRNEIPLIHFNTPIPRRHTRSAEDDSERDPLNVLKPRARMTPAPASCSQELPSAEDNSPMASDPLGVVRGGRVNTHAGGTGPEGCRPFAKFI
